One block for each binder: values may come before it.
What was measured:
[1] = target: T1, hDC-SIGN (human, UniProt Q9NNX6 60-404); assay: BIAcore 3000
T1 chain: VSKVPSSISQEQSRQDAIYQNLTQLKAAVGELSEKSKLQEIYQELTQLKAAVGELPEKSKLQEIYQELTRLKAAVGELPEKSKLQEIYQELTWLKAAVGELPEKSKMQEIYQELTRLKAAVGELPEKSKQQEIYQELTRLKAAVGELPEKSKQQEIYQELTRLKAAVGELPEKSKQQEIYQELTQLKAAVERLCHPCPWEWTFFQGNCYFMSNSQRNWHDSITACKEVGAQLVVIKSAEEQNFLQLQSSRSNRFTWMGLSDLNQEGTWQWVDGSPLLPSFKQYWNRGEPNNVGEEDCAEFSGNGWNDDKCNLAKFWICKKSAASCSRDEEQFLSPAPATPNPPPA

[2] = target: mannan-binding lectin (MBL) (human, UniProt P11226 21-248); assay: BIAcore 3000
Sequence of mannan-binding lectin (MBL) (P11226 21-248): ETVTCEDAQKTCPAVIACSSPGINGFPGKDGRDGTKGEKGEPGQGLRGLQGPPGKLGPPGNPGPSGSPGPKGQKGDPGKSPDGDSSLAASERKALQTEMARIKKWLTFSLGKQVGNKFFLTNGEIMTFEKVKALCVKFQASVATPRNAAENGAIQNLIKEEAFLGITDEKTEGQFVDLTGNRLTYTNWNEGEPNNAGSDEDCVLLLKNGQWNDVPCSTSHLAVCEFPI

- Kd [1]: 3.88 nM
B1: AZN-D1, murine monoclonal antibody directed to h-DC-SIGN (the "initial antibody" of Example 2) (antibody, V domains shown)
VH: QVQLQQSGPQSVRPGASVKISCKASGYSFTSYWMGWVKQRPGQGLEWIGMIDPFDSESRLNQEFKDKATLTVDKSSSTVYMQLSSPTSEDSAIYYCVRRNGGYYVFDSWGQGTTLTVSS
VL: DVLMTQSPLSLPVSLGDKASISCRSSQNIVHSNGDTYLEWYLQRPGQSPKLLIFKVSNRFSGVPDRFSGSGSGTDFILKISRVEAEDLGVYYCFQGSHVPWTFGGGTKLEIK

- Kd [2]: 1.24 nM
B2: murine monoclonal antibody directed to human mannose binding lectin (the "initial antibody" of Example 1) (antibody, V domains shown)
VH: VQLQESGPGLVKPSQSLSLTCTVTGYSITSDYAWNWIRQFPGNKLEWMGYISYSGSTSYNPSLKSRVSITRDTSKNQFFLQLNSVTTEDTATYYCARWESWFAYWGQGTLVTVSA
VL: DIVLTQSPATLSVTPGDSVSLSCRASQSISNDLHWYQQKSHESPRLLIKYASQSISGIPSRFSGSGSGTDFTLSINSVETEDFGMYFCQQSNSWPYTFGGGTKLEIK
